Data taken from article PMC6265302, “Widespread bacterial lysine degradation proceeding via glutarate and L-2-hydroxyglutarate” (Nature Communications, 2018).

Tests used:
Conditions in all cases: Filter binding: 50 mM Tris-HCl, 100 mM KCl, 50 mM NaCl, 5 mM MgCl2, pH 7.6, 15 min, footprint: 50 mM MOPS, 100 mM NaCl, 20 mM KCl, 2.5 mM MgCl2, 0.1 mM DTT
[1] = target: T1, CsiR (Escherichia coli BW25113 (K-12)) (UniProt P37338); experiment: SPR
T1 sequence: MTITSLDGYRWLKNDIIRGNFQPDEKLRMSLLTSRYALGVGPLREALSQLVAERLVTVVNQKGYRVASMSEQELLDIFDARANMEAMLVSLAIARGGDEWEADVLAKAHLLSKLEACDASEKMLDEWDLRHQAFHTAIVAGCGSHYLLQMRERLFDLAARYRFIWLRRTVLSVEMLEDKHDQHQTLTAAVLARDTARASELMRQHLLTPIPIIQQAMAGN

[2] = target: T1, CsiR (Escherichia coli BW25113 (K-12)); experiment: hydroxyl radical footprinting
[3] = test system: CsiR (Escherichia coli BW25113 (K-12)); experiment: SPR

Substance: CTTTTGTGCGCATTTTTCAGAAATGTAGATATTTTTAGATTATGGCTACGAAATGAG (double strand) [csiD 5'-UTR/promoter PCR product MS177/MS178]
- Kd [1]: 10 nM

Substance: TATGAGATGTAGGGTGACATGGCGATGCTCATTTCGTAGCCATAATCTAAAAATATCTACATTTCTGAAAAATGCGCACAAAAGCGACATATTGTTTTCTTATTGTGATCAAAAGCAACA (double strand) [csiD promoter PCR product MS170/MS171]
- binding [2]: binds

Substance: csiD 5'-UTR/promoter PCR product MS177/MS178
- Kd [3]: 10 nM
